Test results taken from PMC5681633, “SnO2 hollow nanotubes: a novel and efficient support matrix for enzyme immobilization” (Scientific Reports, 2017).

Substrate: CCCCCCCCCCCCCCCC(=O)Oc1ccc([N+](=O)[O-])cc1
Assay: hydrolysis assay, Michaelis-Menten nonlinear fit
Assay type: biochemical, Thermomyces lanuginosus
Settings: free enzyme, optimum temperature and pH (50 °C, pH 8.5, 20 mM Tris-HCl), substrate 0.05-5.0 mM, p-NPP as the standard assay substrate
Description: hydrolysis assay, Michaelis-Menten nonlinear fit on Lipase from Thermomyces lanuginosus (Lipozyme TL 100 L)

B1: Lipase from Thermomyces lanuginosus (Lipozyme TL 100 L) (Thermomyces lanuginosus) (protein)
chain: EVSQDLFNQFNLFAQYSAAAYCGKNNDAPAGTNITCTGNACPEVEKADATFLYSFEDSGVGDVTGFLALDNTNKLIVLSFRGSRSIENWIGNLNFDLKEINDICSGCRGHDGFTSSWRSVADTLRQKVEDAVREHPDYRVVFTGHSLGGALATVAGADLRGNGYDIDVFSYGAPRVGNRAFAEFLTVQTGGTLYRITHTNDIVPRLPPREFGYSHSSPEYWIKSGTLVPVTRNDIVKIEGIDATGGNNQPNIPDIPAHLWYFGLIGTCL
notes: commercial secreted enzyme preparation (Novozymes), free (not immobilised)
Km: 710 ± 50 µM
